Reference: patent US12228572B2, “Enhanced expression of polo-like kinase 3 (PLK3) in human immunodeficiency virus (HIV)-infected cells” (priority 2021, dated 2025)
“And” between values parts separate entries of the source, which are not always exact repeats. Equal entries are not always repeated.

Experiments:
HIV-1 [1] = details: overexpression of the PLK3 protein
Text: Specific test steps are as follows. All RNAs were extracted for qPCR to measure the Gag transcription level of HIV-1 (FIG. 4). Cells were collected for a flow cytometry test, and the expression level of an HIV-1 p24 protein was detected by using specific antibodies (FIG. 5).

hepatitis B virus (HBV) = test: HBs ELISA of HBV virus particles in supernatant of 293T cells treated with HBV replicator; format: cell-based; details: overexpression in 293T cells, HBV driven by CMV promoter, 48 hours
HIV-1AD8 = test: Infectivity of supernatant from transfected 293T cells treated with pAD8, on TZM-bl cells; format: cell-based; details: 48 hours after transfection
HIV-1BaL = test: Infectivity of supernatant from transfected 293T cells treated with pBaL, on TZM-bl cells; format: cell-based; details: 48 hours after transfection
HIV-189.6 = test: Infectivity of supernatant from transfected 293T cells treated with p89.6, on TZM-bl cells; format: cell-based; details: 48 hours after transfection
HIV-2ROD = test: Infectivity of supernatant from transfected 293T cells treated with pHIV-2ROD, on TZM-bl cells; format: cell-based; details: 48 hours after transfection
SIVagm = test: Infectivity of supernatant from transfected 293T cells treated with pSIVagm, on TZM-bl cells; format: cell-based; details: 48 hours after transfection
HIV-1 [2] = system: HIV-1
HIV-1 [3] = details: overexpression of the PLK3 protein; remark: listed apart in the source
HIV-1 [4] = details: overexpression of the PLK3 protein; remark: listed apart in the source
HIV-1 [5] = system: HIV-1; remark: listed apart in the source

B1: PLK3 protein: human PLK3 protein overexpressed from a 3× FLAG-labeled PLK3 protein expression vector (protein, UniProt Q9H4B4 1-646, looked up)
chain: MEPAAGFLSPRPFQRAAAAPAPPAGPGPPPSALRGPELEMLAGLPTSDPGRLITDPRSGRTYLKGRLLGKGGFARCYEATDTETGSAYAVKVIPQSRVAKPHQREKILNEIELHRDLQHRHIVRFSHHFEDADNIYIFLELCSRKSLAHIWKARHTLLEPEVRYYLRQILSGLKYLHQRGILHRDLKLGNFFITENMELKVGDFGLAARLEPPEQRKKTICGTPNYVAPEVLLRQGHGPEADVWSLGCVMYTLLCGSPPFETADLKETYRCIKQVHYTLPASLSLPARQLLAAILRASPRDRPSIDQILRHDFFTKGYTPDRLPISSCVTVPDLTPPNPARSLFAKVTKSLFGRKKKSKNHAQERDEVSGLVSGLMRTSVGHQDARPEAPAASGPAPVSLVETAPEDSSPRGTLASSGDGFEEGLTVATVVESALCALRNCIAFMPPAEQNPAPLAQPEPLVWVSKWVDYSNKFGFGYQLSSRRVAVLFNDGTHMALSANRKTVHYNPTSTKHFSFSVGAVPRALQPQLGILRYFASYMEQHLMKGGDLPSVEEVEVPAPPLLLQWVKTDQALLMLFSDGTVQVNFYGDHTKLILSGWEPLLVTFVARNRSACTYLASHLRQLGCSPDLRQRLRYALRLLRDRSPA
modifications: full-length 3xFLAG tag
notes: human PLK3 protein overexpressed from a 3× FLAG-labeled PLK3 protein expression vector
- transcription level of virus Gag in cells (HIV-1 [1]): not affected
- virus Gag protein level (HIV-1 [1]): obviously reduced
- replication and release of the HBV (hepatitis B virus (HBV)): not affected
- ability to limit infection with HIV-1AD8 (HIV-1AD8): has an ability to limit infection
- ability to limit infection with HIV-1BaL (HIV-1BaL): has an ability to limit infection
- ability to limit infection with HIV-189.6 (HIV-189.6): has an ability to limit infection
- ability to limit infection with HIV-2ROD (HIV-2ROD): has an ability to limit infection
- ability to limit infection with SIVagm (SIVagm): has an ability to limit infection
- HIV infectivity reduced to fraction of original level (HIV-1 [2]; 293T cells with vs without PLK3 protein expression, maximum reduction, 48 hours after transfection): about 1/150
- HIV-1 infectivity as fraction of that of the negative control group (HIV-1 [2]; different expression amounts, 293T cells, pNL4.3, 48 hours): 1/11 and 1/115
- content of core antigen p24 of virus particles in cultured supernatant (HIV-1 [3]): greatly decreased
- content of genomic RNA of the virus particles in cultured supernatant (HIV-1 [4]): greatly decreased
- ability to block HIV-1 infection (HIV-1 [5]): extremely strong ability to block HIV-1 infection
